Assay results taken from PMC5626764 (2017).

Biological target: T1, ephrinB2-Fc (human ephrinB2 residues 1-229, Factor XA cleavage site, human IgG1 residues 100-330) (human, UniProt P52799 28-229)
T1 chain: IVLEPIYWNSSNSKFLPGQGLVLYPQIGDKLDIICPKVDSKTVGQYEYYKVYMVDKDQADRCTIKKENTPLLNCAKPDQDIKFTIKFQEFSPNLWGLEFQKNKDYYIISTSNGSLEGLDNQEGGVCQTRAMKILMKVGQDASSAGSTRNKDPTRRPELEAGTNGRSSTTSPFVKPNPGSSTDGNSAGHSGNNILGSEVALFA
Assay: ELISA

B1: Wildtype NiV G ectodomain (Nipah virus attachment glycoprotein G, residues 71-602, N-terminal His6-tag) (domain or fragment)
chain: QNYTRSTDNQAVIKDALQGIQQQIKGLADKIGTEIGPKVSLIDTSSTITIPANIGLLGSKISQSTASINENVNEKCKFTLPPLKIHECNISCPNPLPFREYRPQTEGVSNLVGLPNNICLQKTSNQILKPKLISYTLPVVGQSGTCITDPLLAMDEGYFAYSHLERIGSCSRGVSKQRIIGVGEVLDRGDEVPSLFMTNVWTPPNPNTVYHCSAVYNNEFYYVLCAVSTVGDPILNSTYWSGSLMMTRLAVKPKSNGGGYNQHQLALRSIEKGRYDKVMPYGPSGIKQGDTLYFPAVGFLVRTEFKYNDSNCPITKCQYSKPENCRLSMGIRPNSHYILRSGLLKYNLSDGENPKVVFIEISDQRLSIGSPSKIYDSLGQPVFYQASFSWDTMIKFGDVLTVNPLVVNWRNNTVISRPGQSQCPRFNTCPEICWEGVYNDAFLIDRINWISAGVFLDSNQTAENPVFTVFKDNEILYRAQLASEDTNAQKTITNCFLLKNKIWCISLVEIYDTGDNVIRPKLFAVKIPEQCT
Ki: 0.038 nM
